Data reported in patent US10711248B2, “Device and method for standardizing myoblast differentiation into myotubes” (Cytoo, priority 2013, dated 2020).

B1: Wnt3a: Wnt molecule known to inhibit AChR clustering in mice (protein, UniProt P56704 19-352, looked up)
Protein Wnt-3a: SYPIWWSLAVGPQYSSLGSQPILCASIPGLVPKQLRFCRNYVEIMPSVAEGIKIGIQECQHQFRGRRWNCTTVHDSLAIFGPVLDKATRESAFVHAIASAGVAFAVTRSCAEGTAAICGCSSRHQGSPGKGWKWGGCSEDIEFGGMVSREFADARENRPDARSAMNRHNNEAGRQAIASHMHLKCKCHGLSGSCEVKTCWWSQPDFRAIGDFLKDKYDSASEMVVEKHRESRGWVETLRPRYTYFKVPTERDLVYYEASPNFCEPNPETGSFGTRDRTCNVSSHGIDGCDLLCCGRGHNARAERRREKCRCVFHWCCYVSCQECTRVYDVHTCK
B2: Wnt4: Wnt molecule known to stimulate AChR clustering in mice (protein, UniProt P56705 23-351, looked up)
Protein Wnt-4: SNWLYLAKLSSVGSISEEETCEKLKGLIQRQVQMCKRNLEVMDSVRRGAQLAIEECQYQFRNRRWNCSTLDSLPVFGKVVTQGTREAAFVYAISSAGVAFAVTRACSSGELEKCGCDRTVHGVSPQGFQWSGCSDNIAYGVAFSQSFVDVRERSKGASSSRALMNLHNNEAGRKAILTHMRVECKCHGVSGSCEVKTCWRAVPPFRQVGHALKEKFDGATEVEPRRVGSSRALVPRNAQFKPHTDEDLVYLEPSPDFCEQDMRSGVLGTRGRTCNKTSKAIDGCELLCCGRGFHTAQVELAERCSCKFHWCCFVKCRQCQRLVELHTCR

Tested on: acetylcholine receptors (AChR) clustering in myotubes derived from human primary cells
Test: Acetylcholine receptor clustering in primary human myotubes cultured on micropatterns (TMR-Bungarotoxin probe)
Assay type: cell-based
Settings: FIG. 8A/8B
Experimental: FIG. 8B is a quantification of the regulation of cluster formation through agrin and Wnt signaling;
C2C12 mouse or primary human myoblasts (HSMM, Lonza) were cultured on fibronectin coated micropatterns within growth medium (DMEM, 20% FBS, 0.5% P/S, or Lonza SkGM™-2 cell culture Kit respectively) during 24 hours. Then both cell types were cultured within differentiation medium (DMEM/F12, 2% Horse Serum, 0.5% P/S) during 5 to 11 days for HSMM and C2C12 respectively. Differentiation medium were changed every 2 days. Cells were fixed and an immunostaining was realized against myosin heavy chain (in green in a color image—in light grey in the appended black&white figures), actin (in red in a color image—in medium grey in the appended black&white figures) and nuclei (in blue in a color image—in dark grey in the appended black&white figures). Images were acquired using an epifluorescence microscope (DMI6000, Leica).

Row | Molecule | Effect on AChR clustering / cluster formation
1 | agrin: treatment inducing acetylcholine receptor clustering in myotubes [reference compound] | large clustering
2 | B1 | inhibit
3 | B2 | stimulate
